How the values were obtained:
[1] = molecular target: human serum albumin (HSA) (human) (UniProt P02768); experiment: ELISA, HSA coated on plate, n = 3
[2] = molecular target: mouse serum albumin (MSA) (mouse) (UniProt P07724); experiment: ELISA, MSA coated on plate, n = 3
Chain of UniProt P07724 (P07724 25-608 limits assumed): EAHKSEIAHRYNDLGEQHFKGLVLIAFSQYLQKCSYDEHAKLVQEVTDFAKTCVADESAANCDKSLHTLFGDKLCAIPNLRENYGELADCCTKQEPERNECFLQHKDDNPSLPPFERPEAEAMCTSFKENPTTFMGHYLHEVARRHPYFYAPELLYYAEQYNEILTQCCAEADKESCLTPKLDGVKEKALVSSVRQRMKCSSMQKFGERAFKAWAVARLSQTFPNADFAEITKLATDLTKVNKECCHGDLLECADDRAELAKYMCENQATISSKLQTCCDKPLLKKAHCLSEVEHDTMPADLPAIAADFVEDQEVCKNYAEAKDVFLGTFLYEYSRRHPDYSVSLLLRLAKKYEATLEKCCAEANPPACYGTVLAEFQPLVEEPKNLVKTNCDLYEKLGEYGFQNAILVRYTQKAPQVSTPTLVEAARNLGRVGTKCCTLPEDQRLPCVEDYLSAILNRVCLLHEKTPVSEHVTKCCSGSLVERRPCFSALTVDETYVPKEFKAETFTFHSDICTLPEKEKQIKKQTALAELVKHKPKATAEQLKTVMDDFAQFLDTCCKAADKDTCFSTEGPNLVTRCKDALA

Chain of UniProt P02768 (P02768 25-609 limits assumed): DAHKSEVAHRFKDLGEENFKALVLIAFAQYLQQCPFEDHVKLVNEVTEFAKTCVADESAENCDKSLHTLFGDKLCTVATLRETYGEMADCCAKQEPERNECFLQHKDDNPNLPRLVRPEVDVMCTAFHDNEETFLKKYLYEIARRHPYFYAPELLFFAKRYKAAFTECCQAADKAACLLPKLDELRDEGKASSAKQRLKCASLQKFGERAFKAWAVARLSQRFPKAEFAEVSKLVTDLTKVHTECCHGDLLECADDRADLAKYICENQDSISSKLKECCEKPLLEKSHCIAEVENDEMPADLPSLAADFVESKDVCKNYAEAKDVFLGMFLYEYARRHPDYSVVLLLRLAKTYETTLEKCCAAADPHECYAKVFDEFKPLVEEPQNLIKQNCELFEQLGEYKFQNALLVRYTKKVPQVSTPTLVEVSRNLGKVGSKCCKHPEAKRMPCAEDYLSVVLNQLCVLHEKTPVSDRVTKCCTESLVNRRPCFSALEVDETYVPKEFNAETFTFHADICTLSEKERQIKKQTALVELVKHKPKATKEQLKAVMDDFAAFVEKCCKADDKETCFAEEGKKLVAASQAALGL

## SS1-ABD-dsFv-PE38 (LMB-209)
[1]
  Affinity: 0.11 nM
[2]
  Affinity: 0.16 nM
